This passage reports activity (fold vs 4-mutation SPB) results from patent US20260022353.

The data set concerns the target piggyBac transposase, 5 hyperactive mutations (Hyper) I30V,G165S,M226F,M282V,N538K (Trichoplusia ni?) (UniProt Q27026). Briefly: cell_activity. The settings on record: ~50% enhanced integration in K562 (p260); ~50% enhanced excision in 293T (p263).
Chain of UniProt Q27026 (Q27026 entry or part of it I30V G165S M226F M282V N538K): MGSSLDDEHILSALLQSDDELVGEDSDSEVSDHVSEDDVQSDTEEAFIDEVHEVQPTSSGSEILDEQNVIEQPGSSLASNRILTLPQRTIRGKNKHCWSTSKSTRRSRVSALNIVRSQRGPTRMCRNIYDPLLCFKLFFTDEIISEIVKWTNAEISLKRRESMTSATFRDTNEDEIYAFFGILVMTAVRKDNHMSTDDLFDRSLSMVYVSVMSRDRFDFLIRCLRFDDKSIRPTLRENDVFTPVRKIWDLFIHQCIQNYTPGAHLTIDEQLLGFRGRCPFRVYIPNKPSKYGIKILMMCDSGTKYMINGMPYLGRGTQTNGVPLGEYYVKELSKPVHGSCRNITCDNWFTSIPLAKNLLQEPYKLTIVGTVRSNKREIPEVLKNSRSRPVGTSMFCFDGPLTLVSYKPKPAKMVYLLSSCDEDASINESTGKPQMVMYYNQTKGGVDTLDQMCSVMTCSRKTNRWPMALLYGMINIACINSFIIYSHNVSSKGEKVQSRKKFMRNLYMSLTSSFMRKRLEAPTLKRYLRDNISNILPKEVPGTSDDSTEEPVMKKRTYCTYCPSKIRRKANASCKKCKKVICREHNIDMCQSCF

“piggyBac transposon with wild type LE and RE ITRs (dual reporter)”: the activity (fold vs 4-mutation SPB) amounted to 1.5.
